Among the data in patent US20180280412A1 are DUBs activity on Ub-AMC substrate values, retold here.

This assay concerns the target Ub-AMC substrate.

In turn, purified 26S proteasome (enzyme) yielded a DUBs activity on Ub-AMC substrate of 3 fold.
